We go through 2 substances from patent publication US20250115655A1, “PHARMACEUTICALS AND DEVICES FOR THE COVALENT IMMOBILIZATION TO THE EXTRACELLULAR MATRIX BY TRANSGLUTAMINASE” (JULIUS-MAXIMILIANS-UNIVERSITÄT WÜRZBURG, priority 2017, published 2025).

“Also recorded” adds a separate entry of the source.

In series [1] the target is T1, Factor XIIIa (Homo sapiens, UniProt P00488).
T1 construct: purchased Fibrogammin®
T1 sequence (P00488 39-732 limits assumed): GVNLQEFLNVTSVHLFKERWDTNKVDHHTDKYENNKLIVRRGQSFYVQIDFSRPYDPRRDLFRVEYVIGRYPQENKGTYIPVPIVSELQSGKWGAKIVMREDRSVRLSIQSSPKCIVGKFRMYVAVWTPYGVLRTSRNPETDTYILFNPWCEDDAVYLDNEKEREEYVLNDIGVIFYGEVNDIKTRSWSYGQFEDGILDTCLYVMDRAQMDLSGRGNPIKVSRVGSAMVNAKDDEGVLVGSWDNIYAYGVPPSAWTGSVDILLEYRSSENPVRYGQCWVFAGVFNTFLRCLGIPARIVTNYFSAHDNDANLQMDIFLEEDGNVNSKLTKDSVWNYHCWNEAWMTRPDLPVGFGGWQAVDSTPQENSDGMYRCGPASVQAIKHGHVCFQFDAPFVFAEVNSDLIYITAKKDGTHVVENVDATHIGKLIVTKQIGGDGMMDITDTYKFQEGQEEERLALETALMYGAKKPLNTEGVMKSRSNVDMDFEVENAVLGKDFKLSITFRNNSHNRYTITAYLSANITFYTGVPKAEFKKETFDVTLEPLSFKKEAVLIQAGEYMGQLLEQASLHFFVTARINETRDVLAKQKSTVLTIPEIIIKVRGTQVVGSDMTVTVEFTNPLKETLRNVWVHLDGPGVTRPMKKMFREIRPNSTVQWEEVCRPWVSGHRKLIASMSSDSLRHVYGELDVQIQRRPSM
The series can be described thus: FXIIIa-mediated coupling of IGF-I to linker containing the glutamine substrate sequence (SDS-PAGE, western blot, HPLC kinetics). It is filed as biochemical. The procedure:
The specificity and efficiency of the reaction was analyzed and compared to the isolated D domain (SEQ ID NO: 1) using a linker containing the glutamine substrate sequence derived from α-2 plasmin inhibitor and analyzed by SDS-PAGE and by western blotting using a monoclonal anti-IGF-I antibody (FIG. 4A). The transamidation was carried out at 37° C. for 5 min in Tris buffer (20 mM Tris-HCL, 150 mM sodium chloride, pH 7.6) with 0.1 M calcium chloride in presence of factor XIIIa (Fibrogammin®, activated with 0.02 U/ml thrombin). The resulting conjugate was analyzed by MALDI-MS and the site-specific conjugation confirmed. […] FIGS. 4A-4B: (4A) SDS PAGE and immunoblotting of human IGF-I after incubation with the glutamine substrate peptide modelled from the N-terminus of alpha-2 plasmin inhibitor (SEQ ID NO: 11) attached to a protease cleavable linker (PCL) in absence and presence of FXIIIa. (4B) HPLC analysis of IGF-I coupling kinetics mediated by […].

The test system of series [2] is fibronectin. The series can be described thus: Immobilization of native IGF-I on fibroblast derived isolated ECM and soluble fibronectin in presence of Factor XIIIa. The format is biochemical. The following applies: 37° C., 10 min, antibody staining (FIG. 6A). The procedure:
(§1) To test this strategy, native IGF-I was immobilized onto fibroblast derived, isolated extracellular matrix in presence of Factor XIIIa (FIGS. 6A-6B). […] The transamidation reaction was carried out at 37° C. for 10 min in Tris buffer at pH 7.6 and is suitable for performance under physiological conditions. […] Bioactivity of immobilized IGF-I was confirmed by promoting cell proliferation of mouse myoblast cells (FIGS. 7A-7B).
FIGS. 6A-6B: (6A) Confocal laser scanning microscopy images of IGF-I immobilized on isolated ECM. The immobilized IGF-I was visualized with a monoclonal IGF-I antibody (green) und co-localized with fibronectin (red). (6B) Western Blot of human IGF-I after incubation with fibronectin in presence (lane 1) and absence (lane 2) of factor XIIIa with unreacted IGF-I as control (lane 3).

Series [3] concerns C2C12 myoblasts. The series can be described thus: Bioactivity of ECM-immobilized IGF-I: C2C12 myoblast proliferation (WST-1). The format is cell-based. The following applies: mouse myoblast cells, 48 hours. The protocol: as §1
FIGS. 7A-7B: Bioactivity of ECM-immobilized IGF-I. (7A) Native IGF-I was coupled to ECM in presence/absence of factor XIIIa, followed by seeding of C2C12 myoblasts on this naturally derived matrix and cell proliferation was measured after 48 hours incubation using WST-1 (Data are shown as mean±STDEV, n=3; ** p<0.01). (7B) The cells were fixed, stained with actin (green) and DAPI (cell nuclei, blue) and ECM-immobilized IGF-I was visualized using a monoclonal IGF-I antibody (red).
On the technique in general: Tetrazolium assays rely on reduction of a dye to a coloured formazan, in cell work by metabolically active cells.

For series [4] the following is noted: doses of 0.12 mg/kg, subcutaneous injection; cited from earlier work.

In the case of “IGF-I: Human IGF-I, peptide hormone of 7.6 kDa, 70 amino acids”, the “crosslinking of the complete protein, reaction kinetics by HPLC” value in series [1] (37° C., Tris buffer pH 7.6 (FIG. 4B)) is “exceptionally fast and efficient”. Besides, the “kinetics of the coupling reaction” value in series [1] (human factor XIIIa) is less than 2 min. Also, in series [2], the “co-localization with fibronectin after conjugation to the ECM” value is on record as “confirmed the co-localization with fibronectin”. In addition, the “bioactivity of immobilized IGF-I (cell proliferation)” value in series [3] is listed as “confirmed; also recorded: preserved”.
The term half-life denotes how long it takes for the measured level to halve. Mecasermin: Recombinant human IGF-I: the half-life in series [4] was 5.8 h.
